Patent US12473560 (FLAGSHIP PIONEERING INNOVATIONS VI, dated 2025)
Where two headings read alike, the source gives them in different places.

What was measured:
[1] = biological target: T1, SARS-CoV-2 Spike protein receptor-binding domain (RBD) (SARS-CoV-2, UniProt P0DTC2 319-527); test: BLI (Octet), IgG1 captured on anti-human Fc sensors, RBD in solution; as to Req: test concentration or dose not given here; as to Response: test concentration or dose not given here; as to kobs: test concentration or dose not given here
[2] = biological target: T1, SARS-CoV-2 Spike protein …
[3] = biological target: SARS-CoV-2 Spike as carried on rVSV-SARS-CoV-2 pseudovirus and authentic WT virus (SARS-CoV-2, UniProt P0DTC2 14-1273); test: cell-based or functional assay
[4] = biological target: T1, SARS-CoV-2 Spike protein …; test: BLI (Octet), IgG captured on anti-human Fc sensors, RBD in solution
[5] = biological target: T1, SARS-CoV-2 Spike protein …; test: BLI (Octet Red96e), IgG captured on anti-human Fc sensors, RBD in solution

| Binder | Kd [1] [nM] | Req [1] [nm shift] | Response [1] [nm shift] | kobs [1] [s⁻¹] | koff [1] [s⁻¹] | kon [1] [M⁻¹ s⁻¹] | Kd [2] [nM] | Neutralization (ng/mL), Authentic Virus IC50 [3] [ng/mL] | Neutralization (ng/mL), Authentic Virus IC80 [3] [ng/mL] | Neutralization (ng/mL), Pseudovirus IC50 [3] [ng/mL] | Neutralization (ng/mL), Pseudovirus IC80 [3] [ng/mL] | Neutralization (ng/mL), Pseudovirus IC90 [3] [ng/mL] | Kd [4] [nM] | Kd [5] [nM] | koff [5] [s⁻¹] | kon [5] [M⁻¹ s⁻¹] |
| --- | --- | --- | --- | --- | --- | --- | --- | --- | --- | --- | --- | --- | --- | --- | --- | --- |
| AB-10 full-length IgG1 (humanized) (antibody, V domains shown) VH: QVQLVQSGAEVKKPGASVKVSCKASGYTFTSYWMHWVRQAPGQGLEWMGAIYPGNGDTNYAQKFQGRVTMTADTSISTAYMELSRLRSDDTAVYYCTREGIPQLLNTLDVWGQGTLVTVSS VL: DIQMTQSPSSLSASVGDRVTITCRASQEISGYLNWYQQKPGKAPKRLIYAASSLQSGVPSRFSGSGSGTDFTLTISSLQPEDFATYYCQQYLSYPWTFGQGTKVEIK | 25.4 | 0.102 | 0.114 | 0.0151 | 0.00306 | 121000 | – | – | – | – | – | – | – | – | – | – |
| AB-12 full-length IgG1 (humanized) (antibody, V domains shown) VH: EVQLVQSGAEVKKPGESLKISCKASGYTFTTYWMHWVRQMPGKGLEWMGAIYPGNSDTRYSPSFQGQVTLSVDKSITTAYLQWNSLKASDTAMYFCTREGIPQLLRTLDYWGQGTLVTVSS VL: DIQMTQSPSSLSASVGDRVTITCRASQGISGYLSWLQQKPEKAPKRLIYAASTLQSGVPSRFSGSGSGTDFTLTISSLQPEDFATYYCQQYLSYPWTFGQGTKLEIK | 32.4 | 0.135 | 0.145 | 0.0149 | 0.00366 | 113000 | – | – | – | – | – | – | – | – | – | – |
| AB-1 full-length IgG1 (antibody, V domains shown) VH: EVQLEESGTVLARPGASVKMSCKASGYTFTTYWMHWIKQRPGQGLEWIGAIYPGNSDTQYNQKFKDKAKLTAVKSTSSAYMELSSLTNEDSAVYFCTREGIPQLLRTLDYWGQGTSVTVSS VL: DILMTQSPSSLSASLGERVSLTCRASQEISGYLSWLQEKPDGTIKRLIYAASTLDSGVPKRFSGSRSGSDYSLTISSLESEDFADYYCLQYLSYPWTFGGGTKLEIK | 15.9 | 0.388 | 0.364 | 0.00924 | 0.00127 | 79700 | 34.2 | 78 | 543 | 0.0782 | 2.6 | 9.56 | 39 | 39 | 0.0024 | 62000 |
| AB-2 full-length IgG1 (antibody, V domains shown) VH: EVQLEESGTVLARPGASVKMSCKASGYTFTTYWMHWIKQRPGQGLEWIGAIYPGNGDTNYNQKFKDKAKLTAVKSTSSAYMELSSLTNEDSAVYFCTREGIPQLLRTLDYWGQGTSVTVSS VL: DILMTQSPSSLSASLGERVSLTCRASQEISGYLSWLQEKPDGTIKRLIYAASTLDSGVPKRFSGSRSGSDYSLTISSLESEDFADYYCLQYLSYPWTFGGGTKLEIK | – | – | – | – | – | – | 127 | 379 | 3030 | 9.65 | 35.2 | 760 | – | – | – | – |
| AB-6 full-length IgG1 (antibody, V domains shown) VH: EVQLEESGTVLARPGASVKMSCKASGYTFTSYWMHWIKQRPGQGLEWIGAIYPGNSDTNYNQKFKDKAKLTAVKSTSSAYMELSSLTNEDSAVYFCTREGIPQLTRTLDYWGQGTSVTVSS VL: DILMTQSPSSLSASLGERVSLTCRASQEISGYLSWLQEKPDGTIKRLIYAASTLDSGVPKRFSGSRSGSDYSLTISSLESEDFADYYCLQYLSYPWTFGGGTKLEIK | – | – | – | – | – | – | 103 | 25000 | 25000 | 6.15 | 27.2 | 58.4 | – | – | – | – |
| AB-8 full-length IgG1 (antibody, V domains shown) VH: EVQLEESGTVLARPGASVKMSCKASGYTFTTYWMHWIKQRPGQGLEWIGAIYPGNSDTIYNQKFKDKAKLTAVKSTSSAYMELSSLTNEDSAVYFCTREGIPQLLRTLDYWGQGTSVTVSS VL: DILMTQSPSSLSASLGERVSLTCRASQEISGYLSWLQEKPDGTIKRLIYAASTLDSGVPKRFSGSRSGSDYSLTISSLESEDFADYYCLQYLSYPWTFGGGTKLEIK | – | – | – | – | – | – | 104 | 222 | 1600 | 0.792 | 3.34 | 7.6 | – | – | – | – |
| AB-3 full-length IgG1 (antibody, V domains shown) VH: EVQLEESGTVLARPGASVKMSCKASGYTFTTYWMHWIKQRPGQGLEWIGAIYPGNGDTNYNQKFKDKAKLTAVKSTSSAYMELSSLTNEDSAVYFCTREGIPQKLRTLDVWGQGTSVTVSS VL: DILMTQSPSSLSASLGERVSLTCRASQEISGYLSWLQEKPDGTIKRLIYAASTLDSGVPKRFSGSRSGSDYSLTISSLESEDFADYYCLQYLSYPWTFGGGTKLEIK | – | – | – | – | – | – | 177 | 3550 | 11100 | 17.6 | 110 | 502 | – | – | – | – |
| AB-9 full-length IgG1 (antibody, V domains shown) VH: EVQLEESGTVLARPGASVKMSCKASGYTFTSYWMHWIKQRPGQGLEWIGAIYPGNSDTNYNQKFKDKAKLTAVTSTSSAYMELSSLTNEDSAVYFCTREGIPQLLRTLDYWGQGTSVTVSS VL: DILMTQSPSSLSASLGERVSLTCRASQEISGYLSWLQEKPDGTIKRLIYAASTLDSGVPKRFSGSRSGSDYSLTISSLESEDFADYYCLQYLSYPWTFGGGTKLEIK | – | – | – | – | – | – | 98.8 | 100 | 627 | 0.824 | 4.14 | 9.95 | – | – | – | – |
| AB-7 full-length IgG1 (antibody, V domains shown) VH: EVQLEESGTVLARPGASVKMSCKASGYTFTSYWMHWIKQRPGQGLEWIGAIYPGNSDTNYNQKFKDKAKLTAVKSTSSAYMELSSLTNEDSAVYFCTREGIPQLLRSLDYWGQGTSVTVSS VL: DILMTQSPSSLSASLGERVSLTCRASQEISGYLSWLQEKPDGTIKRLIYAASTLDSGVPKRFSGSRSGSDYSLTISSLESEDFADYYCLQYLSYPWTFGGGTKLEIK | – | – | – | – | – | – | 386 | – | – | 24.6 | – | – | – | – | – | – |
| AB-5 full-length IgG1 (antibody, V domains shown) VH: EVQLEESGTVLARPGASVKMSCKASGYTFTSYWMHWIKQRPGQGLEWIGAIYPGNGDTNYNQKFKDKAKLTAVKSTSSAYMELSSLTNEDSAVYFCTREGIPQLLNTLDVWGQGTSVTVSS VL: DILMTQSPSSLSASLGERVSLTCRASQEISGYLSWLQEKPDGTIKRLIYAASTLDSGVPKRFSGSRSGSDYSLTISSLESEDFADYYCQQYLSYPWTFGGGTKLEIK | 41.3 | 0.318 | 0.315 | 0.0117 | 0.00341 | 82500 | 148 | 260 | 2460 | 8.25 | 35.2 | 71.1 | – | – | – | – |
| AB-4 full-length IgG1 (antibody, V domains shown) VH: EVQLEESGTVLARPGASVKMSCKASGYTFTTYWMHWIKQRPGQGLEWIGAIYPGNGDTNYNQKFKDKAKLTAVKSTSSAYMELSSLTNEDSAVYFCTREGIPQLLRTFDYWGQGTSVTVSS VL: DILMTQSPSSLSASLGERVSLTCRASQEIGGYLSWLQEKPDGTIKRLIYAASTLDSGVPKRFSGSRSGSDYSLTISSLESEDFADYYCLQYLSYPWTFGGGTKLEIK | – | – | – | – | – | – | 151 | – | – | – | – | – | – | – | – | – |
| AB-11 full-length IgG1 (humanized) (antibody, V domains shown) VH: EVQLVQSGAEVKKSGESLKISCKASGYTFTTYWMHWVRQMPGKGLEWMGAIYPGNSDTQYSPSFQGQVTLSADKSISTAYLQWSSLKASDTAMYFCTREGIPQLLRTLDYWGQGTLVTVSS VL: EIVLTQSPGTLSLSPGERATLSCRASQEISGYLAWLQQKPGQAPRRLIYAASSLATGIPDRFSGSGSGTDFTLTISRLEPEDFAVYYCLQYLSYPWTFGQGTKVEIK | 32.7 | 0.326 | 0.319 | 0.0104 | 0.00255 | 78000 | – | – | – | – | – | – | – | – | – | – |
